Data reported in paper PMC6677171 (Life Science Alliance, 2019).
Each block holds one binder with its values, some of them ahead of it.

B3: Mis18 (S. pombe) (natural protein, UniProt Q9P802 1-194, looked up)
chain: MSQTETSHSGYIDFKKESQPSVFQCKKCFQIVGDSNAWVISHREYLSFTLSDAVENSVRVEDTFKRSDDGLCVYSELSCTRCNEVIGKVYNSTPIYLDDIRDMYTFSMDKLQAYQLGNKTVNPEGLTRYQVDLEMREDIIKLKSFCLSLYEKFELHDETLRSVKETISSLKKPKIEGKEGKKEKARTYSKRTRK
notes: Mis18, S. pombe, N-terminal YIPPEE domain and C-terminal coiled coil; 'Full-length' is said of the co-expressed complex; source: insect cells; co-expressed with Mis16 and Mis19 and co-purified, or purified alone for the pull-down

Assays:
[1] = biological target: T1, Mis16 (S. pombe), full length, affinity tag removed (S. pombe, UniProt O94244 1-430); test: ITC; competition: Mis16 preincubated with one peptide (H4α1 or Mis19α2) before titration with the second; apparent KD; conditions: both partners purified
T1 construct: Mis16, S. pombe, WD40-repeat protein, homologue of human RbAp46/48; codon-optimised gene; Used where the methods or text say the tag was removed (crystals, MALLS of the untagged complex) and, by the general purification protocol, for ITC and AUC; source: insect cells (baculovirus made in Sf21, expressed in Hi5), purified (Strep-Tactin, anion exchange, TEV cleavage, SEC); not shown: double …

[2] = biological target: T1, Mis16 (S. pombe), full length, affinity …; test: ITC; iTC200, 30°C; 50 mM Tris pH 7.5, 100 mM NaCl, 4% glycerol, 0.5 TCEP; 26 μM protein in the cell, 260 μM peptide injected; conditions: both partners purified
Mis18 (S. pombe) = biological target: B3; test: SEC; competition: preformed Mis16–Mis18–Mis19 complex challenged with peptides from the Mis19 N terminus; dissociation seen as separate Mis16–19 and Mis18 peaks; conditions: both partners purified
[3] = biological target: the molecule itself; test: AUC; sedimentation velocity of the purified co-expressed Mis16–Mis18–Mis19 complex at two concentrations; 150 mM NaCl, 25 mM Tris–HCl pH 8.0, 2 mM TCEP; 50,000 rpm, 4°C; c(s) in SEDFIT
[4] = biological target: T1, Mis16 (S. pombe), full length, affinity …; test: as above; conditions: both partners purified
[5] = biological target: T1, Mis16 (S. pombe), full length, affinity …; test: SEC-MALS; 200 μg of purified Mis16–Mis19C complex on Superose 6 Increase 10/300 coupled to a Wyatt Dawn 8+ MALS system; conditions: both partners purified

- binding result (Mis18 (S. pombe)): binds
B2: Mis19^1–44 peptide (peptide, UniProt O42995 1-44, looked up)
peptide: MDLMPLEKARAIEIAFDNVFHNTKIPDNLQQFDAILKRLERRRF
notes: Mis19 (Eic1), S. pombe, residues 1–44 (motifs 1 and 2); also called wild-type peptide

- binding result [4]: binds
B4: Mis19 (S. pombe), full length (natural protein, UniProt O42995 1-112, looked up)
chain: MDLMPLEKARAIEIAFDNVFHNTKIPDNLQQFDAILKRLERRRFIPTENQKPRVYETELLVLRFREFGVKDNHNHPINLHSLRSKSLIRAQGKKLDLHNRVFLRRNVRAVKM
notes: Mis19 (also known as Eic1), S. pombe; only handled in complex; also called Eic1; source: insect cells (MultiBac), co-expressed with Mis16 and Mis18, co-purified

- stoichiometry N [5]: 1
B5: Mis19C (Mis19 residues 52–112) (domain or fragment, S. pombe, UniProt O42995 52-112, looked up)
chain: PRVYETELLVLRFREFGVKDNHNHPINLHSLRSKSLIRAQGKKLDLHNRVFLRRNVRAVKM
notes: holds sites A, B and C; Cannot be expressed and purified without Mis16; also called Mis19^52-C; N-terminal truncation of Mis19; source: insect cells, co-expressed with Mis16

Further lines, the binder ahead of its results:

Binder: LHNRVFLRRNVRAVKM (peptide, UniProt O42995 97-112, looked up, also called Mis19 site C peptide) [Mis19α2 peptide (Mis19 residues 97–112)]
- apparent KD with Mis16 preincubated with H4α1 [1]: 2500 nM
- Kd [2]: 8 nM

B1: Mis19 C-terminal peptide (residues 97–112) F102S (peptide, UniProt O42995 97-112, looked up)
peptide: LHNRVSLRRNVRAVKM
notes: the text ties the value to the F102S (eic1-1) mutant; also called F102 mutant; eic1-1 mutation
- Kd [2]: ~301 nM

Binder: B3
- stoichiometry N [3]: 4
